Assay results published in IntAct's records for PubMed 16717101.

B1: Regulatory protein SIR4 (Saccharomyces cerevisiae), P11978 (parent)
chain: MPNDNKTPNRSSTPKFTKKPVTPNDKIPEREEKSNEVKTPKIPLFTFAKSKNYSRPSTAIHTSPHQPSDVKPTSHKQLQQPKSSPLKKNNYNSFPHSNLEKISNSKLLSLLRSKTSAGRIESNNPSHDASRSLASFEQTAFSRHAQQQTSTFNSKPVRTIVPISTSQTNNSFLSGVKSLLSEEKIRDYSKEILGINLANEQPVLEKPLKKGSADIGASVISLTKDKSIRKDTVEEKKEEKLNIGKNFAHSDSLSVPKVSAGDSGISPEESKARSPGIAKPNAIQTEVYGINEESTNERLEINQEKPVKLDENSANSTVASALDTNGTSATTETLTSKKIVPSPKKVAIDQDKITLHDEKTLAPSKHQPITSEQKMKEDADLKRMEILKSPHLSKSPADRPQGRRNSRNFSTRDEETTKLAFLVEYEGQENNYNSTSRSTEKKNDMNTSAKNKNGENKKIGKRPPEIMSTEAHVNKVTEETTKQIQSVRIDGRKVLQKVQGESHIDSRNNTLNVTPSKRPQLGEIPNPMKKHKPNEGRTPNISNGTINIQKKLEPKEIVRDILHTKESSNEAKKTIQNPLNKSQNTALPSTHKVTQKKDIKIGTNDLFQVESAPKISSEIDRENVKSKDEPVSKAVESKSLLNLFSNVLKAPFIKSESKPFSSDALSKEKANFLETIASTEKPENKTDKVSLSQPVSASKHEYSDNFPVSLSQPSKKSFANHTEDEQIEKKKICRGRMNTIITHPGKMELVYVSDSDDSSSDNDSLTDLESLSSGESNEIKVTNDLDTSAEKDQIQAGKWFDPVLDWRKSDRELTKNILWRIADKTTYDKETITDLIEQGIPKHSYLSGNPLTSVTNDICSVENYETSSAFFYQQVHKKDRLQYLPLYAVSTFENTNNTEKNDVTNKNINIGKHSQEQNSSSAKPSQIPTVSSPLGFEETKLSTTPTKSNRRVSHSDTNSSKPKNTKENLSKSSWRQEWLANLKLISVSLVDEFPSELSDSDRQIINEKMQLLKDIFANNLKSAISNNFRESDIIILKGEIEDYPMSSEIKIYYNELQNKPDAKKARFWSFMKTQRFVSNMGFDIQKSCEPVSISTSVKPHVVEPEHMADAKIMPKDILQITKKPLMVKNVKPSSPPDVKSLVQLSTMETKTLPEKKQFDSIFNSNKAKIIPGNGKHASENISLSFSRPASYGYFSVGKRVPIVEDRRVKQLDDITDSNTTEILTSVDVLGTHSQTGTQQSNMYTSTQKTELEIDNKDSVTECSKDMKEDGLSFVDIVLSKAASALDEKEKQLAVANEIIRSLSDEVMRNEIRITSLQGDLTFTKKCLENARSQISEKDAKINKLMEKDFQVNKEIKPY

Variants of: B1
Settings: with sir3_yeast SIR3, P06701
sir3_yeast SIR3, P06701, sequence (P06701 whole entry): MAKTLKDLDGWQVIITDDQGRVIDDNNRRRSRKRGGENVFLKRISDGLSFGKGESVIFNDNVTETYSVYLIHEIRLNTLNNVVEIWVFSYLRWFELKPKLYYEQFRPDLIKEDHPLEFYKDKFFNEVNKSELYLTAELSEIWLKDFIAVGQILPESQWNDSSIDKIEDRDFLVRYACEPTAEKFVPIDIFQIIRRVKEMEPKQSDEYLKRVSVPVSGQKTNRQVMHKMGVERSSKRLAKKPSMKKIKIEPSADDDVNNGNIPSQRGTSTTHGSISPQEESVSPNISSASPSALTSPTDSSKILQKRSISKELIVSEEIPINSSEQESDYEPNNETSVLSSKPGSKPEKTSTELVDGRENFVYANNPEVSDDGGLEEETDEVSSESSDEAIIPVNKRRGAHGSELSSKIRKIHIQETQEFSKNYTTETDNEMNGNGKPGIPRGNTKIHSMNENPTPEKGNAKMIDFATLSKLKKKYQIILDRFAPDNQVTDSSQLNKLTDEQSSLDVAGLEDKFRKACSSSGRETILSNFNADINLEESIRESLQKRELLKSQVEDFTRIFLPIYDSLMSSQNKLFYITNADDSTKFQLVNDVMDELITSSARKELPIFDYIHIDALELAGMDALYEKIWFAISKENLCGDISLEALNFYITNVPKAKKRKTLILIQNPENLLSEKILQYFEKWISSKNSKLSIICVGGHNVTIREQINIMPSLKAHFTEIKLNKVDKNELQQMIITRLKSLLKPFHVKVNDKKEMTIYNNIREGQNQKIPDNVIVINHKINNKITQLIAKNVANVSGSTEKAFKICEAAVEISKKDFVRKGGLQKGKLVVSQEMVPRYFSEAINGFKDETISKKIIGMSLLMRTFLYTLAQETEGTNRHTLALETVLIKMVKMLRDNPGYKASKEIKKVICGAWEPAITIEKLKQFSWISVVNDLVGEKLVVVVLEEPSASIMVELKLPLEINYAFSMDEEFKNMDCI

Variant	effect of a mutation on the interaction
M1307N	decreasing interaction
